8 molecules from patent publication US20210380703A1 can be followed below.

B1: 374_H05 (antibody, V domains shown)
VH: EVQLLESGGGLVQPGGSLRLSCAASGFTFSSYSMNWVRQAPGKGLEWVAGINYNGGYTSYADSVKGRFTISRDNSKNTLYLQMNSLRAEDTAVYYCARGATWHDTHLDYWGQGTLVTVSS
VL: DIQMTQSPSSLSASVGDRVTITCRASQSILSYVNWYQQKPGKAPKLVIYAATSRASGVPSRFSGSGSGTDFTLTISSLQPEDFATYYCQQSYDNPLTFGGGTKVEIK
B2: 375_A03 (antibody, V domains shown)
VH: EVQLLESGGGLVQPGGSLRLSCAASGFTFDSYSMNWVRQAPGKGLEWVAGINYNGGYTSYADSVKGRFTISRDNSKNTLYLQMNSLRAEDTAVYYCARGATWHDTHLDYWGQGTLVTVSS
VL: DIQMTQSPSSLSASVGDRVTITCRASQSILTYLNWYQQKPGKAPKLLIYAATSRHSGVPSRFSGSGSGTDFTLTISSLQPEDFATYYCQQSYDNPLTFGGGTKVEIK
B3: 376_A07 (antibody, V domains shown)
VH: EVQLLESGGGLVQPGGSLRLSCAASGFTFSSYSMNWVRQAPGKGLEWVSGINYNGGYKSYADSVKGRFTISRDNSKNTLYLQMNSLRAEDTAVYYCARGATWHDTHLDYWGQGTLVTVSS
VL: DIQMTQSPSSLSASVGDRVTITCRASQSILTYLNWYQQKPGKAPKLLIYAATSRASGVPSRFSGSGSGTDFTLTISSLQPEDFATYYCQQSYDSPLTFGGGTKVEIK
B4: 375_B03 (antibody, V domains shown)
VH: EVQLLESGGGLVQPGGSLRLSCAASGFTFSSYSMNWVRQAPGKGLEWVAGINYNGGYTSYADSVKGRFTISRDNSKNTLYLQMNSLRAEDTAVYYCARGATWHDTHLDYWGQGTLVTVSS
VL: DIQMTQSPSSLSASVGDRVTITCRASQSILTYLNWYQQKPGKAPKLLIYAATSRASGVPSRFSGSGSGTDFTLTISSLQPEDFATYYCQQSYDSPLTFGGGTKVEIK
B5: 376_A02 (antibody, V domains shown)
VH: EVQLLESGGGLVQPGGSLRLSCAASGFTFSSYSMNWVRQAPGKGLEWVAGINYNGGYKSYADSVKGRFTISRDNSKNTLYLQMNSLRAEDTAVYYCARGATWHDTHLDYWGQGTLVTVSS
VL: DIQMTQSPSSLSASVGDRVTITCRASQSILSYLNWYQQKPGKAPKLLIYAATSRASGVPSRFSGSGSGTDFTLTISSLQPEDFATYYCQQSYDLPLTFGGGTKVEIK
B6: 375_H08 (antibody, V domains shown)
VH: EVQLLESGGGLVQPGGSLRLSCAASGFTFSSYSMNWVRQAPGKGLEWVSGINYNGGYTSYADSVKGRFTISRDNSKNTLYLQMNSLRAEDTAVYYCARGATWHDTHLDYWGQGTLVTVSS
VL: DIQMTQSPSSLSASVGDRVTITCRASQSILTYLNWYQQKPGKAPKLLIYAATSLASGVPSRFSGSGSGTDFTLTISSLQPEDFATYYCQQSYDSPLTFGGGTKVEIK
B7: 375_F10 (antibody, V domains shown)
VH: EVQLLESGGGLVQPGGSLRLSCAASGFTFSSYSMNWVRQAPGKGLEWVSGINYNGGYTGYADSVKGRFTISRDNSKNTLYLQMNSLRAEDTAVYYCARGATWHDTHLDYWGQGTLVTVSS
VL: DIQMTQSPSSLSASVGDRVTITCRASQSILTYLNWYQQKPGKAPKLVIYAATSRASGVPSRFSGSGSGTDFTLTISSLQPEDFATYYCQQSYDTPLTFGGGTKVEIK
B8: 375_C11 (antibody, V domains shown)
VH: EVQLLESGGGLVQPGGSLRLSCAASGFTFSSYSMNWVRQAPGKGLEWVSSINYNGGYTSYADSVKGRFTISRDNSKNTLYLQMNSLRAEDTAVYYCARGATWHDTHLDYWGQGTLVTVSS
VL: DIQMTQSPSSLSASVGDRVTITCRASQSILSYVNWYQQKPGKAPKLLIYAATSRHSGVPSRFSGSGSGTDFTLTISSLQPEDFATYYCQQSYDTPLTFGGGTKVEIK

For this experiment, the target named is Human Fc (human). Briefly: ELISA; negative control. In general terms: An ELISA detects its analyte on a solid surface through an enzyme-linked reagent.
In turn, B1 yielded an optical density of 0.257 OD.
Turning to B2, the optical density came to 0.203 OD.
Turning to B3, the optical density worked out at 0.221 OD.
For B4, the optical density was found to be 0.209 OD.
B5 gave an optical density of 0.22 OD.
As to B6, the optical density turned out to be 0.204 OD.
For the molecule B7, the optical density was determined as 0.21 OD.
B8 returned an optical density of 0.199 OD.
